Test results taken from doi:10.1101/2022.08.30.505904.
Values belong to the substance of their own block, whether it stands above or below them.

What was measured:
[1] = target: CBKP1 complex (PaCgi121/PaBud32/PaKae1/PaPcc1) (Pyrococcus abyssi) (UniProt Q9UXT7); test: SEC-SAXS
[2] = target: CBKP2 complex (PaCgi121/PaBud32/PaKae1/PaPcc2) (Pyrococcus abyssi | Pyrococcus abyssi GE5) (UniProt Q9UXT7); test: SEC-SAXS
[3] = target: PaPcc2 with C-terminal hexa-histidine tag (Pyrococcus abyssi GE5); test: SEC

Substance: CBKP1 complex (PaCgi121/PaBud32/PaKae1/PaPcc1) (from UniProt Q9UXT7 1-324)
stoichiometry N [1]: 2

Substance: CBKP2 complex (PaCgi121/PaBud32/PaKae1/PaPcc2) (from UniProt Q9UXT7 1-324)
stoichiometry N [2]: 2

stoichiometry N [3]: 2
Substance: PaPcc2 with C-terminal hexa-histidine tag (natural protein)
